Data reported in patent publication US20110287000A1 (published 2011).
Values belong to the molecule of their own block, whether it stands above or below them.

B2: human CD127 (IL-7Rα) expressed on cells (CD127-transfected CHO cells; PBMC / CD4+ T cells in functional assays) (receptor)
chain: ESGYAQNGDLEDAELDDYSFSCYSQLEVNGSQHSLTCAFEDPDVNTTNLEFEICGALVEVKCLNFRKLQEIYFIETKKFLLIGKSNICVKVGEKSLTCKKIDLTTIVKPEAPFDLSVIYREGANDFVVTFNTSHLQKKYVKVLMHDVAYRQEKDENKWTHVNLSSTKLTLLQRKLQPAAMYEIKVRSIPDHYFKGFWSEWSPSYYFRTPEINNSSGEMDPILLTISILSFFSVALLVILACVLWKKRIKPIVWPSLPDHKKTLEHLCKKPRKNLNVSFNPESFLDCQIHRVDDIQARDEVEGFLQDTFPQQLEESEKQRLGGDVQSPNCPSEDVVVTPESFGRDSSLTCLAGNVSACDAPILSSSRSLDCRESGKNGPHVYQDLLLSLGTTNSTLPPPFSLQSGILTLNPVAQGQPILTSLGSNQEEAYVTMSSFYQNQ
notes: The construct transfected into CHO is not described further; The same entry is used for native CD127 on human PBMC/T cells in functional rows; also called CHO-CD127; IL-7Rα expressed on CHO

What was measured:
[1] = target: human CD127 (IL-7Rα) expressed on cells (CD127-transfected CHO cells; PBMC / CD4+ T cells in functional assays) (human) (UniProt P16871); test: binding to CHO cells expressing IL-7Rα (flow cytometry)
[2] = target: recombinant human CD127 extracellular domain (CD127 ECD) (human) (UniProt P16871); test: blocking of IL-7/IL-7Rα binding, competitor IL-7; format not given
[3] = target: recombinant human CD127 extracellular domain (CD127 ECD) (human) (UniProt P16871); test: SPR (profile summary)
[4] = target: human CD127 (IL-7Rα) expressed on cells (CD127-transfected CHO cells; PBMC / CD4+ T cells in functional assays) (human) (UniProt P16871); test: cell-based or functional assay
[5] = target: recombinant human CD127 extracellular domain (CD127 ECD) (human) (UniProt P16871); test: BIAcore blocking assay: inhibition ratio of CD127 ECD binding to immobilised IL-7 against antibody concentration
[6] = target: B2; test: binding to CHO cells expressing IL-7Rα (flow cytometry)
[7] = target: T1, recombinant human CD127 extracellular domain (CD127 ECD) (human, UniProt P16871 21-219); test: blocking of IL-7/IL-7Rα binding, competitor IL-7; format not stated in the sentence (BIAcore neutralising assay with immobilised IL-7 is described in 2.11)
T1 construct: The assays only say 'recombinant human CD127 ECD'; also called IL-7Rα EDC; IL-7Rα
T1 chain: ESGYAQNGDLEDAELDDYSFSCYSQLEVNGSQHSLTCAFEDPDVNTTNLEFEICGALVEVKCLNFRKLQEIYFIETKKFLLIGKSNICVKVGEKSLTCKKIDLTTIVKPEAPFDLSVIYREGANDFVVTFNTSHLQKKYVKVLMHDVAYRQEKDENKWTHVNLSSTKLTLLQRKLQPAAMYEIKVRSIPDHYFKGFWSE

[8] = target: B2; test: cell-based or functional assay
[9] = target: T1, recombinant human CD127 extracellular …; test: SPR (profile summary; differs from Table 3)
[10] = target: T1, recombinant human CD127 extracellular …; test: SPR, Biacore T100, 25° C.; antibody captured on rabbit anti-mouse IgG, CD127 ECD as analyte
Procedure: Antibody kinetics were assessed using a Biacore T100 system (GE Healthcare) with a reaction temperature of 25° C. Rabbit anti-mouse IgG antibody was immobilized on a CM5 biosensor chip with a final level of […] (response units) using the standard amine coupling kit and procedure. HBS-EP buffer pH 7.4 (consisting of 10 mM HEPES, 0.15 M sodium chloride, 3 mM EDTA and 0.005% v/v surfactant P20) was used as running buffer. Sensograms were run against a reference cell that was blank immobilized using EDC/NHS/ethanol amine. […] The sensor chip surfaces were regenerated with 10 mM Glycine-HCl, pH 1.7. Kd values were calculated using the Biacore evaluation software package.

[11] = target: T1, recombinant human CD127 extracellular …; test: BIAcore blocking assay: inhibition ratio of CD127 ECD binding to immobilised IL-7 against antibody concentration
Procedure: HBS-EP buffer pH 7.4 (consisting of 10 mM HEPES, 0.15 M sodium chloride, 3 mM EDTA and 0.005% v/v surfactant P20) was used as running buffer. Sensograms were run against a reference cell that was blank immobilized using EDC/NHS/ethanol amine. […] After each injection the sensor chip surfaces were regenerated with 10 mM Glycine-HCl, pH 2.0. […] Inhibition ratio calculated as follows: Inhibition ratio=1−RU(sample)/RU(ECD).

[12] = target: T2, recombinant human IL-7 (human, UniProt P13232 26-177); test: flow cytometry competition on CHO-CD127 cells: pre-incubation with IL-7, then staining with 6A3 (competitor read out: 6A3)
T2 sequence (looked up): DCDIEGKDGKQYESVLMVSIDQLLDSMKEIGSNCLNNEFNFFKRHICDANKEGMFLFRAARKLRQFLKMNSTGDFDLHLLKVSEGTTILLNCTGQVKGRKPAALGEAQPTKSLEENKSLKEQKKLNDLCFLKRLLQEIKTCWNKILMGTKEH
Procedure: After the incubation, anti-CD127 antibodies were added and the incubation continued for additional 30 min in 4% FCS in DPBS (FACS buffer). Afterward cells were washed in FACS buffer 3 times and stained with anti-mouse IgG ALEXA488 secondary antibody at 1:2000 dilution (Invitrogen Inc. #13-A11017).

[13] = target: T1, recombinant human CD127 extracellular …; test: ELISA, recombinant human CD127 ECD coated on the plate, detection with HRP goat anti-mouse IgG
Excerpt: Anti-CD127 antibodies from the test hybridoma supernatants or purified material were titrated across the plate. The level of binding was detected by treatment with a horse-radish peroxidase (HRP) -conjugated goat-anti-mouse IgG antibody. The ELISA was developed using TMB substrate.

[14] = target: T1, recombinant human CD127 extracellular …; test: SPR, Biacore T100; CD127 ECD immobilised on CM5, 9B7 hybridoma supernatant as analyte; table title says 37° C.
Procedure: HBS-EP buffer pH 7.4 (consisting of 10 mM HEPES, 0.15 M sodium chloride, 3 mM EDTA and 0.005% v/v surfactant P20) was used as running buffer. […] Kd values were calculated using the Biacore evaluation software package.

[15] = target: T1, recombinant human CD127 extracellular …; test: blocking of IL-7/IL-7Rα binding, competitor IL-7; format not given

EC50 [1]: 0.01 µg/mL
IC50 [2]: 1.38 µg/mL
Kd [3]: 7.74 nM
IC50 of inhibition of pSTAT5 signalling [4]: 0.67 µg/ml
IL-17 production in IL-7 induced differentiated T cells (CCR6+ TH17), donors with inhibition [4]: 6 of 6 donors
IC50 (read off the curve) [5]: 3 µg/mL
Molecule: R34.34 (Dendritics Inc. #DDX0700), commercial anti-human CD127 antibody

EC50 (read off the curve) [13]: ~0.6 µg/mL
Kd [14]: 0.556 nM
B3: mAb 9B7 (murine anti-human CD127 monoclonal antibody) (antibody, IgG1, V domains shown)
VH: QVQLQESGPGLVAPSQSLSITCTVSGFSLSRYNVHWVRQPPGKGLEWLGMIWDGGSTDYNSALKSRLSITKDNSKSQVFLKMNSLQTDDTAMYYCARNRYESGMDYWGQGTTVTVSS
VL: DIVMTQTPSSLTVTAGEKVTMSCKSSQSLLNSGNRKNYLTWYQQKPGQSPKLLIYWASTRESGVPDRFTGSGSGTDFTLIISSVQAEDLAVYYCQNDYTYPFTFGSGTKLEIKR
notes: Mouse hybridoma antibody; also called antibody 9B7; clone 9B7

EC50 [6]: 0.27 µg/mL
IC50 of inhibition of pSTAT5 signalling [8]: 0.22 µg/ml
Kd [10]: 15.3 nM
koff [10]: 0.000875 s⁻¹
IC50 [15]: 2.29 µg/mL
B5: mAb GR34 (reverse engineered clone of R34.34) (antibody, mouse IgG1, V domains shown)
VH: EVQLQQSGPELVKPGASMKISCKASGYSFTGYTMNWVKQSHGKNLEWIGLINPYSGITSYNQNFKGKATLTVDKSSSTAYMELLNLTSEDSAVYYCARGDGNYWYFDVWGAGTTVTVSS
VL: EIILTQSPAITAASLGQKVTITCSASSSVSYMHWYQQKSGTSPKPWIYEISKLASGVPARFSGSGSGTSYSLTISSMEAEDAAIYYCQYWNYPYTFGGGTKLEIK
notes: also called antibody GR34

IC50 of inhibition of pSTAT5 signalling [8]: 50 µg/ml
Kd [10]: 24.4 nM
koff [10]: 0.000436 s⁻¹
kon [10]: 17900 M⁻¹ s⁻¹
B6: mAb 6C5 (murine anti-human CD127 monoclonal antibody) (antibody, mouse IgG1, V domains shown)
VH: EVKLLESGGGLVQPGGSLKLSCAASGFAFSAYWMSWVRQAPGKGLEWIGEINPDSSTINCTPSLKDKFIISRDNAKNTLSLQMNKVRSEDTALYYCARRLRPFWYFDVWGAGTTVTVSS
VL: DVLMTQTPLSLPVSLGDQASISCRSSQSIVQSNGNTYLEWYLQKPGQSPKLLIYKVSNRFSGVPDRFSGSGSGTDFTLKISRVEAEDLGVYYCFQGSHVPRTFGGGTKLEIK
notes: also called antibody 6C5

The next lines start with the molecule.

B1: mAb 6A3 (murine anti-human CD127 monoclonal antibody) (antibody, mouse IgG1, V domains shown)
VH: DVQLQESGPGLVKPSQSLSLTCTVTGYSITTDYAWNWIRQFPGNKLEWMGYIFYSGSTTYTPSLKSRISITRDTSKNQFFLQLNSVTTEDTATYYCARGGYDVNYFDYWGQGTTLTVSS
VL: DIQMTQSPASQSASLGESVTITCLASQTIGAWLAWYQQKPGKSPQLLIYAATRLADGVPSRFSGSGSGTKFSFKISSLQAEDFVSYYCQQFFSTPWTFGGGTKLEIK
notes: also called antibody 6A3
EC50 [6]: 0.19 µg/mL
IC50 [7]: 1.92 µg/mL
IC50 of inhibition of pSTAT5 signalling [8]: 0.099 µg/ml
Kd [9]: 7.99 nM
koff [9]: 0.000334 s⁻¹
Kd [10]: 7.74 nM
koff [10]: 0.000146 s⁻¹
kon [10]: 18900 M⁻¹ s⁻¹
IC50 (read off the curve) [11]: ~2 µg/mL

Molecule: B2
binding result [12]: binds

B4: mAb 1A11 (murine anti-human CD127 monoclonal antibody) (antibody, mouse IgG1, V domains shown)
VH: EVQLQQSGPELLKPGASMKISCKASGYSFTGYTMNWVKQSHGKNLEWIGLINPYNGVTSYNQKFKGKATLTVAKSSSTAYMELLSLTSEDSAVYYCARGDGNYWYFDVWGAGTTVTVSS
VL: EIVLTQSPAITAASLGQKVTITCSASSSVTYMHWYQQKSGTSPKPWIYEISKLASGVPVRFSGSGSGTSYSLTISSMEAEDAAIYYCQEWNYPYTFGGGTKLEIK
notes: also called antibody 1A11
EC50 [6]: 0.16 µg/mL
IC50 of inhibition of pSTAT5 signalling [8]: 0.088 µg/ml
Kd [10]: 3.44 nM
koff [10]: 0.000251 s⁻¹
IC50 [15]: 1.79 µg/mL
